Tested on: Escherichia coli TOP10
Assay: shrunken log2 fold change of peptide-encoding DNA abundance (4.5 h post-induction vs induction); higher = less antimicrobial activity (less host growth inhibition)
Conditions: time post-induction: 4.5 h; library: site-saturation at positions 5, 18, 19, 20
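Also: peptides expressed intracellularly from a pBAD plasmid library in pooled LB shake-flask culture, induced with 0.3% L-arabinose, DNA abundance read by NGS, three biological replicates, DESeq2 with apeglm shrinkage.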

Row | Sequence | shrunken log2 fold change
1 | RRIRPRPPRLPRPRPRPTSPPRP | -0.0252
2 | RRIRPRPPRLPRPRPRPTSVPRP | 0.181
3 | RRIRPRPPRLPRPRPRPTWCPRP | 0.08
4 | RRIRPRPPRLPRPRPRPTWWPRP | 0.426
5 | RRIRPRPPRLPRPRPRPTYVPRP | 0.0486
6 | RRIRPRPPRLPRPRPRPVCIPRP | -0.122
7 | RRIRPRPPRLPRPRPRPVCMPRP | 0.132
8 | RRIRPRPPRLPRPRPRPVCNPRP | -0.141
9 | RRIRPRPPRLPRPRPRPVCTPRP | 0.0082
10 | RRIRPRPPRLPRPRPRPVDLPRP | 0.036
11 | RRIRPRPPRLPRPRPRPVECPRP | 0.00863
12 | RRIRPRPPRLPRPRPRPVERPRP | 0.289
13 | RRIRPRPPRLPRPRPRPVEWPRP | 0.0458
14 | RRIRPRPPRLPRPRPRPVEYPRP | -0.156
15 | RRIRPRPPRLPRPRPRPVGEPRP | 0.415
16 | RRIRPRPPRLPRPRPRPVICPRP | 0.0853
17 | RRIRPRPPRLPRPRPRPVIDPRP | -0.0426
18 | RRIRPRPPRLPRPRPRPVKDPRP | -0.0309
19 | RRIRPRPPRLPRPRPRPVKLPRP | -0.0669
20 | RRIRPRPPRLPRPRPRPVKRPRP | -0.171
21 | RRIRPRPPRLPRPRPRPVKWPRP | 0.00231
22 | RRIRPRPPRLPRPRPRPVLRPRP | 0.303
23 | RRIRPRPPRLPRPRPRPVNNPRP | -0.525
24 | RRIRPRPPRLPRPRPRPVNQPRP | 0.223
25 | RRIRPRPPRLPRPRPRPVNRPRP | -0.0842

Row | Sequence | shrunken log2 fold change
26 | RRIRPRPPRLPRPRPRPVQIPRP | -0.13
27 | RRIRPRPPRLPRPRPRPVRAPRP | 0.622
28 | RRIRPRPPRLPRPRPRPVVYPRP | -0.538
29 | RRIRPRPPRLPRPRPRPVWVPRP | 0.0215
30 | RRIRPRPPRLPRPRPRPVWYPRP | -0.219
31 | RRIRPRPPRLPRPRPRPWADPRP | 0.0868
32 | RRIRPRPPRLPRPRPRPWCGPRP | 0.0629
33 | RRIRPRPPRLPRPRPRPWDCPRP | -0.0719
34 | RRIRPRPPRLPRPRPRPWDTPRP | -0.743
35 | RRIRPRPPRLPRPRPRPWGRPRP | 0.122
36 | RRIRPRPPRLPRPRPRPWIKPRP | -0.0265
37 | RRIRPRPPRLPRPRPRPWKKPRP | -0.0306
38 | RRIRPRPPRLPRPRPRPWKSPRP | 0.0643
39 | RRIRPRPPRLPRPRPRPWLGPRP | 0.256
40 | RRIRPRPPRLPRPRPRPWLWPRP | 0.0404
41 | RRIRPRPPRLPRPRPRPWMKPRP | -0.0651
42 | RRIRPRPPRLPRPRPRPWMMPRP | -0.03
43 | RRIRPRPPRLPRPRPRPWMWPRP | 0.0296
44 | RRIRPRPPRLPRPRPRPWPGPRP | 0.367
45 | RRIRPRPPRLPRPRPRPWPHPRP | 0.0318
46 | RRIRPRPPRLPRPRPRPWQLPRP | 0.224
47 | RRIRPRPPRLPRPRPRPWRFPRP | 0.212
48 | RRIRPRPPRLPRPRPRPWRGPRP | 0.344
49 | RRIRPRPPRLPRPRPRPWRKPRP | 0.0228
50 | RRIRPRPPRLPRPRPRPWTRPRP | 0.0201

Row | Sequence | shrunken log2 fold change
51 | RRIRPRPPRLPRPRPRPWVVPRP | 0.0434
52 | RRIRPRPPRLPRPRPRPWWIPRP | -0.243
53 | RRIRPRPPRLPRPRPRPWWKPRP | -0.0424
54 | RRIRPRPPRLPRPRPRPWYKPRP | 0.215
55 | RRIRPRPPRLPRPRPRPWYVPRP | -0.369
56 | RRIRPRPPRLPRPRPRPYAAPRP | 0.0621
57 | RRIRPRPPRLPRPRPRPYADPRP | 0.0774
58 | RRIRPRPPRLPRPRPRPYARPRP | -0.0595
59 | RRIRPRPPRLPRPRPRPYAWPRP | -0.152
60 | RRIRPRPPRLPRPRPRPYCEPRP | -0.337
61 | RRIRPRPPRLPRPRPRPYCNPRP | -0.481
62 | RRIRPRPPRLPRPRPRPYDDPRP | -0.0211
63 | RRIRPRPPRLPRPRPRPYEFPRP | -0.0919
64 | RRIRPRPPRLPRPRPRPYFVPRP | -0.488
65 | RRIRPRPPRLPRPRPRPYHEPRP | -0.348
66 | RRIRPRPPRLPRPRPRPYHHPRP | -0.655
67 | RRIRPRPPRLPRPRPRPYHRPRP | -0.00884
68 | RRIRPRPPRLPRPRPRPYKAPRP | -0.183
69 | RRIRPRPPRLPRPRPRPYKHPRP | -0.777
70 | RRIRPRPPRLPRPRPRPYKMPRP | -0.605
71 | RRIRPRPPRLPRPRPRPYLKPRP | -0.259
72 | RRIRPRPPRLPRPRPRPYLLPRP | -1.57
73 | RRIRPRPPRLPRPRPRPYNVPRP | -0.0809
74 | RRIRPRPPRLPRPRPRPYQCPRP | -0.0702
75 | RRIRPRPPRLPRPRPRPYQIPRP | -0.314

Row | Sequence | shrunken log2 fold change
76 | RRIRPRPPRLPRPRPRPYRMPRP | 0.0542
77 | RRIRPRPPRLPRPRPRPYRNPRP | -0.558
78 | RRIRPRPPRLPRPRPRPYSFPRP | -0.796
79 | RRIRPRPPRLPRPRPRPYSLPRP | -0.139
80 | RRIRPRPPRLPRPRPRPYTMPRP | 0.0535
81 | RRIRPRPPRLPRPRPRPYVFPRP | -0.659
82 | RRIRPRPPRLPRPRPRPYWHPRP | -0.405
83 | RRIRPRPPRLPRPRPRPYYLPRP | -0.745
84 | RRIRPRPPRLPRPRPRPYYYPRP | -0.937
85 | RRIRQRPPRLPRPRPRPAAAPRP | 0.258
86 | RRIRQRPPRLPRPRPRPAAEPRP | 0.19
87 | RRIRQRPPRLPRPRPRPACHPRP | 0.105
88 | RRIRQRPPRLPRPRPRPACTPRP | -0.475
89 | RRIRQRPPRLPRPRPRPADCPRP | -0.00699
90 | RRIRQRPPRLPRPRPRPADFPRP | -0.193
91 | RRIRQRPPRLPRPRPRPADIPRP | -0.01
92 | RRIRQRPPRLPRPRPRPADLPRP | -0.0217
93 | RRIRQRPPRLPRPRPRPADTPRP | -0.128
94 | RRIRQRPPRLPRPRPRPAEEPRP | 0.0112
95 | RRIRQRPPRLPRPRPRPAEKPRP | -0.00963
96 | RRIRQRPPRLPRPRPRPAETPRP | 0.0338
97 | RRIRQRPPRLPRPRPRPAFDPRP | -0.094
98 | RRIRQRPPRLPRPRPRPAFHPRP | -0.0711
99 | RRIRQRPPRLPRPRPRPAFVPRP | -0.0399
100 | RRIRQRPPRLPRPRPRPAGEPRP | 0.156

Row | Sequence | shrunken log2 fold change
101 | RRIRQRPPRLPRPRPRPAGGPRP | 0.204
102 | RRIRQRPPRLPRPRPRPAGIPRP | 0.0977
103 | RRIRQRPPRLPRPRPRPAHMPRP | -0.267
104 | RRIRQRPPRLPRPRPRPAIHPRP | 0.135
105 | RRIRQRPPRLPRPRPRPAILPRP | 0.312
106 | RRIRQRPPRLPRPRPRPALKPRP | 0.0439
107 | RRIRQRPPRLPRPRPRPAQTPRP | 0.13
108 | RRIRQRPPRLPRPRPRPAQVPRP | 0.0263
109 | RRIRQRPPRLPRPRPRPARKPRP | 0.0862
110 | RRIRQRPPRLPRPRPRPARYPRP | 0.0932
111 | RRIRQRPPRLPRPRPRPASDPRP | 0.197
112 | RRIRQRPPRLPRPRPRPATEPRP | -0.037
113 | RRIRQRPPRLPRPRPRPATGPRP | 0.0181
114 | RRIRQRPPRLPRPRPRPAVEPRP | 0.149
115 | RRIRQRPPRLPRPRPRPAVHPRP | -0.0227
116 | RRIRQRPPRLPRPRPRPAWQPRP | 0.147
117 | RRIRQRPPRLPRPRPRPAYPPRP | -0.167
118 | RRIRQRPPRLPRPRPRPAYSPRP | -0.051
119 | RRIRQRPPRLPRPRPRPCAHPRP | -0.256
120 | RRIRQRPPRLPRPRPRPCAYPRP | -0.0948
121 | RRIRQRPPRLPRPRPRPCCHPRP | -0.197
122 | RRIRQRPPRLPRPRPRPCCPPRP | -0.192
123 | RRIRQRPPRLPRPRPRPCFDPRP | -0.103
124 | RRIRQRPPRLPRPRPRPCFKPRP | -0.407
125 | RRIRQRPPRLPRPRPRPCFRPRP | -0.155

Row | Sequence | shrunken log2 fold change
126 | RRIRQRPPRLPRPRPRPCGDPRP | -0.0871
127 | RRIRQRPPRLPRPRPRPCIMPRP | -0.748
128 | RRIRQRPPRLPRPRPRPCIQPRP | -0.118
129 | RRIRQRPPRLPRPRPRPCKDPRP | -0.294
130 | RRIRQRPPRLPRPRPRPCNGPRP | -0.0134
131 | RRIRQRPPRLPRPRPRPCNQPRP | -0.213
132 | RRIRQRPPRLPRPRPRPCNVPRP | -0.0261
133 | RRIRQRPPRLPRPRPRPCRPPRP | -0.184
134 | RRIRQRPPRLPRPRPRPCRYPRP | -0.167
135 | RRIRQRPPRLPRPRPRPCYQPRP | -0.0254
136 | RRIRQRPPRLPRPRPRPDAFPRP | 0.141
137 | RRIRQRPPRLPRPRPRPDAMPRP | 0.0556
138 | RRIRQRPPRLPRPRPRPDARPRP | 0.422
139 | RRIRQRPPRLPRPRPRPDCHPRP | -0.0897
140 | RRIRQRPPRLPRPRPRPDCNPRP | 0.167
141 | RRIRQRPPRLPRPRPRPDCTPRP | 0.0901
142 | RRIRQRPPRLPRPRPRPDDHPRP | -0.00211
143 | RRIRQRPPRLPRPRPRPDDPPRP | -0.0062
144 | RRIRQRPPRLPRPRPRPDEEPRP | -0.0445
145 | RRIRQRPPRLPRPRPRPDEQPRP | 0.0145
146 | RRIRQRPPRLPRPRPRPDFMPRP | -0.316
147 | RRIRQRPPRLPRPRPRPDGTPRP | 0.103
148 | RRIRQRPPRLPRPRPRPDHIPRP | -0.0197
149 | RRIRQRPPRLPRPRPRPDIFPRP | -0.104
150 | RRIRQRPPRLPRPRPRPDISPRP | 0.0318

Source: the supplement of paper PMC9112550, “Optimization of the antimicrobial peptide Bac7 by deep mutational scanning” (BMC Biology, 2022)
